Values joined by “and” are separate entries in the source; they are usually repeats but may differ in a detail not shown here. Equal values may be shown once.
Columns and labels:
[1] = target: T1, full-length mouse NLRP3 (FLAG-mScarlet tag removed), double ring cage (mouse), Q8R4B8; test: cryo-EM structure; settings: remark: other sources report otherwise
T1 chain: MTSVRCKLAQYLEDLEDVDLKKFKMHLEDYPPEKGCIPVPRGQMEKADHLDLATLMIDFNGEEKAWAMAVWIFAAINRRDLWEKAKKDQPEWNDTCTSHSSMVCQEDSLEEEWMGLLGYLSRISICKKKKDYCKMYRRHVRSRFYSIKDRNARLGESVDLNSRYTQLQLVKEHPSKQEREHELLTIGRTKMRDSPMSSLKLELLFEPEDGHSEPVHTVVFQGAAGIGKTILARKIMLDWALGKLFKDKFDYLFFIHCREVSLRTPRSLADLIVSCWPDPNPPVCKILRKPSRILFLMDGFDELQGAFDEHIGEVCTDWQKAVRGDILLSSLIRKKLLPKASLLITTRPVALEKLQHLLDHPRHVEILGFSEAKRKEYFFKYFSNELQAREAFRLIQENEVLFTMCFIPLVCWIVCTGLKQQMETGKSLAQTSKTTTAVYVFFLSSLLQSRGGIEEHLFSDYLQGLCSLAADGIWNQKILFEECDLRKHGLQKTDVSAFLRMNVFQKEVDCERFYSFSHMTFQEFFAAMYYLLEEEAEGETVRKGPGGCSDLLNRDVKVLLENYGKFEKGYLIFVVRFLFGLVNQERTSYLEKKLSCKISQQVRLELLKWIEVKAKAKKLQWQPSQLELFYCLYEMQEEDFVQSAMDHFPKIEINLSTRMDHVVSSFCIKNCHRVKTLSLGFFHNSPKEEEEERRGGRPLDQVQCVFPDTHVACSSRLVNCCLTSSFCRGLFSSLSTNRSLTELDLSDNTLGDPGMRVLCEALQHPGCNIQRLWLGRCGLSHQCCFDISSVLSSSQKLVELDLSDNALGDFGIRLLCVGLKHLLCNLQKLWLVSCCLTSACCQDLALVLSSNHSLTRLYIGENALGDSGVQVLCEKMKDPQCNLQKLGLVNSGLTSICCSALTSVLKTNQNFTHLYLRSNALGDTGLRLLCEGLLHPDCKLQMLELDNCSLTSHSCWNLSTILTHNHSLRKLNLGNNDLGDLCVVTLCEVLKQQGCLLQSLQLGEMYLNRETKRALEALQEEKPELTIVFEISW

[2] = target: T1, full-length mouse NLRP3 (FLAG-mScarlet …); test: cryo-EM structure; settings: remark: other sources report otherwise

stoichiometry N [1]: 12 and 14 and 16
stoichiometry N [2]: 12
B1: full-length mouse NLRP3 (FLAG-mScarlet tag removed), double ring cage, Q8R4B8 1-1033 (natural protein)
chain: T1 chain

Source: publication doi:10.1101/2021.09.12.459968
